From the Human Domainome abundance scans (Beltran et al. 2025)
± gives the uncertainty stated by the source.

B1: POU domain, class 4, transcription factor 1, residues 266 to 347; numbered along this chain, Q01851 (parent)
chain: RELEAFAERFKQRRIKLGVTQADVGSALANLKIPGVGSLSQSTICRFESLTLSHNNMIALKPILQAWLEEAEGAQREKMNKP
B2: Syntaxin-binding protein 4, residues 493 to 538; numbered along this chain, Q6ZWJ1 (parent)
chain: LDMDCLPYGWEEAYTADGIKYFINHVTQTTSWIHPVMSVLNLSRSE

Variants of: B1
Assay: abundance fitness (aPCA) (normalised: wild type 0, dead -1); higher = more abundant; growth selection in yeast, the domain comes from the species named
Details: Homo sapiens

Variant	abundance fitness
E77H	-0.092 ± 0.062
E77I	-0.063 ± 0.065
E77L	-0.053 ± 0.031
E77M	0.021 ± 0.042
E77P	-0.08 ± 0.048
E77Q	-0.02 ± 0.049
E77S	-0.024 ± 0.032
E77T	-0.064 ± 0.04
E77V	-0.005 ± 0.029
E77W	-0.145 ± 0.035
E77Y	-0.009 ± 0.068
K78A	0.089 ± 0.064
K78D	-0.153 ± 0.14
K78E	0.035 ± 0.06
K78F	0.003 ± 0.23
K78G	-0.036 ± 0.045
K78I	-0.026 ± 0.09
K78L	-0.012 ± 0.069
K78M	0.072 ± 0.09
K78P	-0.048 ± 0.12
K78Q	-0.045 ± 0.12
K78R	0.047 ± 0.051
K78S	-0.092 ± 0.059

Variant	abundance fitness
K78T	-0.273 ± 0.1
K78V	-0.019 ± 0.057
K78W	0.007 ± 0.063
K78Y	-0.106 ± 0.23
M79A	0.004 ± 0.027
M79D	-0.022 ± 0.041
M79F	0.024 ± 0.04
M79G	0.009 ± 0.021
M79I	0.008 ± 0.042
M79K	0.039 ± 0.035
M79L	0.001 ± 0.024
M79N	0.023 ± 0.043
M79P	0.029 ± 0.033
M79Q	-0.03 ± 0.033
M79R	-0.025 ± 0.021
M79S	-0.024 ± 0.026
M79T	-0.021 ± 0.032
M79V	0.007 ± 0.024
M79W	-0.015 ± 0.026
M79Y	-0.011 ± 0.052
N80A	0.117 ± 0.039
N80C	0.064 ± 0.06
N80D	-0.007 ± 0.062

Variant	abundance fitness
N80E	0.078 ± 0.053
N80F	-0.043 ± 0.065
N80G	-0.003 ± 0.032
N80H	0.019 ± 0.066
N80I	-0.121 ± 0.14
N80K	-0.001 ± 0.065
N80L	-0.026 ± 0.039
N80M	-0.004 ± 0.045
N80P	0.073 ± 0.058
N80Q	0.091 ± 0.061
N80R	-0.032 ± 0.034
N80S	0.051 ± 0.04
N80T	-0.007 ± 0.059
N80V	0.098 ± 0.042
N80W	-0.089 ± 0.045
N80Y	-0.037 ± 0.11
K81A	0.148 ± 0.075
K81C	0.1 ± 0.15
K81D	-0.024 ± 0.11
K81F	0.198 ± 0.27
K81G	0.021 ± 0.048
K81H	-0.432 ± 0.39
K81I	-0.112 ± 0.32

Variant	abundance fitness
K81L	0.043 ± 0.07
K81M	-0.059 ± 0.14
K81P	-0.075 ± 0.14
K81Q	-0.042 ± 0.18
K81S	-0.016 ± 0.063
K81T	0.03 ± 0.098
K81V	-0.047 ± 0.059
K81W	0.027 ± 0.056
K81Y	-0.224 ± 0.12
P82A	0.086 ± 0.079
P82D	0.019 ± 0.14
P82E	-0.005 ± 0.12
P82F	-0.105 ± 0.19
P82G	-0.011 ± 0.071
P82K	-0.047 ± 0.16
P82L	-0.123 ± 0.18
P82M	0.008 ± 0.21
P82Q	0.01 ± 0.071
P82T	-0.001 ± 0.082
P82V	-0.053 ± 0.095
P82W	-0.116 ± 0.14
P82Y	0.095 ± 0.34

Variants of: B2
Assay: as above
Details: Homo sapiens

Variant	abundance fitness
V39W	-0.55 ± 0.13
N24S	-0.93 ± 0.14
H34T	-0.877 ± 0.13
F22R	-0.872 ± 0.092
L40A	-0.127 ± 0.11
L40G	0.164 ± 0.085
F22C	-0.659 ± 0.12
M37K	0.38 ± 0.11
T27L	0.644 ± 0.091
D4V	-0.766 ± 0.092
T29I	0.226 ± 0.1
Y14F	-0.659 ± 0.14
R44A	-0.134 ± 0.098
L40E	0.111 ± 0.11
P7K	-0.649 ± 0.13
N41A	-0.313 ± 0.087
W10Y	-0.774 ± 0.15
I19P	-0.761 ± 0.14
S38N	-0.046 ± 0.13
Y8R	-0.34 ± 0.076
L42N	0.578 ± 0.12
C5D	0.321 ± 0.12
V36Q	0.391 ± 0.1
D17A	-0.69 ± 0.11
W10C	-1.01 ± 0.14
G18H	-0.862 ± 0.22

Variant	abundance fitness
F22A	-0.956 ± 0.11
P7R	-0.782 ± 0.094
S43K	-0.846 ± 0.23
E46A	-0.517 ± 0.18
T15E	-0.859 ± 0.16
D17G	-0.76 ± 0.084
S31A	-0.799 ± 0.12
S43T	-0.183 ± 0.14
E11Q	-0.4 ± 0.097
W32Y	-0.33 ± 0.17
S31G	-0.454 ± 0.1
I23M	-0.733 ± 0.18
T15K	-0.938 ± 0.13
S38R	-0.418 ± 0.085
D2G	-0.366 ± 0.082
M3Q	0.065 ± 0.11
L42Y	-0.876 ± 0.21
R44H	-0.287 ± 0.15
I33H	-0.084 ± 0.14
W32G	-0.664 ± 0.089
Y21V	-0.998 ± 0.11
A13I	-0.998 ± 0.21
L40H	0.07 ± 0.19
S38K	-0.479 ± 0.11
M3A	-0.058 ± 0.078
Y14R	-0.389 ± 0.075

Variant	abundance fitness
T15Q	-0.706 ± 0.1
L42E	0.198 ± 0.1
Y21Q	-0.544 ± 0.13
E11F	-0.555 ± 0.12
Y8F	-0.258 ± 0.098
G9P	-0.397 ± 0.092
R44S	0.096 ± 0.087
Q28V	-0.789 ± 0.098
I23L	-0.57 ± 0.099
V39H	-0.263 ± 0.18
A16N	-0.283 ± 0.088
S31C	-0.698 ± 0.15
E46F	-0.308 ± 0.3
I33M	-0.091 ± 0.15
D2I	-0.698 ± 0.16
W32S	-0.679 ± 0.11
A16R	-0.66 ± 0.09
L42C	0.025 ± 0.12
N41T	-0.23 ± 0.12
H34K	-0.686 ± 0.15
E11D	-0.528 ± 0.11
T27P	-0.772 ± 0.14
I23A	-0.781 ± 0.12
E12S	-0.619 ± 0.093
